According to patent publication US20090016988A1:

What was measured:
[1] = target: MPPT2 (proaerolysin with a uPA cleavage site in the activation sequence, an N-terminal AFAI antibody fragment and a His tag) (Aeromonas hydrophila); test: cell-based or functional assay
[2] = target: MPPT3 (proaerolysin with a uPA cleavage site in the activation sequence, an AFAI antibody fragment attached by a uPA-cleavable linker, and a His tag) (Aeromonas hydrophila); test: cell-based or functional assay

urokinase-type plasminogen activator (uPA) (enzyme)
Hemolytic activity after 60 minutes (horse red blood cells, after uPA digestion) (hemolytic titer (wells showing lysis)) [1]: 4.5
Hemolytic activity after 60 minutes (horse red blood cells, after uPA digestion) (hemolytic titer (wells showing lysis)) [2]: 8
